In publication PMC4402612:

Target: SPE-7 IgE (DNP-specific murine IgE/λ, highly cytokinergic) (murine)

recombinant SPE-7 IgE Fab
IC50 of recombinant SPE-7 IgE Fab (30–600 nM) for inhibition of LAD-2 cell TNF-α release evoked by 30 nM SPE-7 IgE; pair blocked: 'free' SPE-7 IgE with receptor-bound SPE-7 IgE: 170 nM
IC50 of recombinant SPE-7 IgE Fab (30–600 nM) for inhibition of LAD-2 mast cell degranulation induced by 30 nM SPE-7 IgE; pair blocked: 'free' SPE-7 IgE with receptor-bound SPE-7 IgE: 190 nM
